Test results: the supplement of paper PMC10065799, “High-throughput profiling of sequence recognition by tyrosine kinases and SH2 domains using bacterial peptide display” (eLife, 2023)

Assays:
[1] = system: AncSZ; assay: phosphorylation enrichment, bacterial display (enrichment ratio); higher = better substrate or ligand; peptides without Tyr show the background
[2] = target: EPHB1 (UniProt P54762); assay: as above
[3] = target: EPHB2 (UniProt P29323); assay: as above
[4] = target: FGFR1 (UniProt P11362); assay: as above
[5] = target: FGFR3 (UniProt P22607); assay: as above
[6] = system: Fer (mouse); assay: as above
[7] = target: Fes (UniProt P07332); assay: as above
[8] = target: Fyn (UniProt P06241); assay: as above
[9] = target: Hck (UniProt P08631); assay: as above
[10] = target: Jak2 (UniProt O60674); assay: as above
[11] = target: MERTK (UniProt Q12866); assay: as above
[12] = system: c-Abl (mouse); assay: as above
[13] = system: c-Src; assay: as above
[14] = target: Grb2 SH2 (UniProt P62993); assay: SH2 binding enrichment of the phosphorylated peptide, bacterial display (enrichment ratio); higher = better substrate or ligand; peptides without Tyr show the background
[15] = target: SHP2-C SH2; assay: as above
[16] = target: c-Src SH2; assay: as above
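Throughout, for SH2 binding enrichment of the phosphorylated peptide, bacterial display: peptide library displayed on the E. coli surface as eCPX fusions, selected cells deep-sequenced, score is each peptide's frequency after selection divided by its frequency in the input.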
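Throughout, for phosphorylation enrichment, bacterial display: 11-residue human phosphosite peptides and single-mutation variants displayed on the E. coli surface, counted by deep sequencing, each peptide's frequency after selection divided by its frequency in the unselected input library; frequency after pTyr selection over input frequency; kinase dosed for 20-30% of maximal phosphorylation in three min.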

Grb2 SH2, sequence (P62993 whole entry, looked up): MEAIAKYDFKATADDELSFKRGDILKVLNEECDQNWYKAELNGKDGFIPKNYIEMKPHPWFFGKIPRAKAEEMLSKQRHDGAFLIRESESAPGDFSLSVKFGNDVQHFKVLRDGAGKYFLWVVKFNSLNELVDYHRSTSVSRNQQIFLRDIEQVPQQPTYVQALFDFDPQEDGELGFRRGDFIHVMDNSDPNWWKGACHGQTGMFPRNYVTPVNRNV
FGFR1, sequence (P11362 whole entry, looked up): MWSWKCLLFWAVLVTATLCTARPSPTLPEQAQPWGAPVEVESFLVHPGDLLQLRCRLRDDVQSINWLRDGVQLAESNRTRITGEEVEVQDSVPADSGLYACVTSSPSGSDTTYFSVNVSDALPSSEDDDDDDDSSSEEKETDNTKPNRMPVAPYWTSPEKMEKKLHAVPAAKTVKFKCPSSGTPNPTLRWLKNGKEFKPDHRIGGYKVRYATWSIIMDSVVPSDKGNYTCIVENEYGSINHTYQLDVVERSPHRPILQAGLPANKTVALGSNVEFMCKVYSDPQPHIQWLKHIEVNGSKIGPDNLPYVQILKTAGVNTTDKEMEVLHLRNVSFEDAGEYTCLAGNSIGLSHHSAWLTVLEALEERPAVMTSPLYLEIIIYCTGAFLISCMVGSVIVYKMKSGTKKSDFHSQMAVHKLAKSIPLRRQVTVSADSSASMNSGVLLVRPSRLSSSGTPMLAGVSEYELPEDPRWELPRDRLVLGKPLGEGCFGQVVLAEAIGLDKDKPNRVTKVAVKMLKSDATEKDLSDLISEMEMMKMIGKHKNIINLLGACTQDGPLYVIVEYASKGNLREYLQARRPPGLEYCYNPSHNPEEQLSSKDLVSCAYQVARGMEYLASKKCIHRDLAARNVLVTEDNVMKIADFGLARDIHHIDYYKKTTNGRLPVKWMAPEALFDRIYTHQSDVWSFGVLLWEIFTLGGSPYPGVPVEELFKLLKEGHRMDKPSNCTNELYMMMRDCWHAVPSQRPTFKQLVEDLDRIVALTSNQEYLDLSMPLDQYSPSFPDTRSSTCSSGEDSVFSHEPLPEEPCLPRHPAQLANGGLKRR
MERTK, sequence (Q12866 whole entry, looked up): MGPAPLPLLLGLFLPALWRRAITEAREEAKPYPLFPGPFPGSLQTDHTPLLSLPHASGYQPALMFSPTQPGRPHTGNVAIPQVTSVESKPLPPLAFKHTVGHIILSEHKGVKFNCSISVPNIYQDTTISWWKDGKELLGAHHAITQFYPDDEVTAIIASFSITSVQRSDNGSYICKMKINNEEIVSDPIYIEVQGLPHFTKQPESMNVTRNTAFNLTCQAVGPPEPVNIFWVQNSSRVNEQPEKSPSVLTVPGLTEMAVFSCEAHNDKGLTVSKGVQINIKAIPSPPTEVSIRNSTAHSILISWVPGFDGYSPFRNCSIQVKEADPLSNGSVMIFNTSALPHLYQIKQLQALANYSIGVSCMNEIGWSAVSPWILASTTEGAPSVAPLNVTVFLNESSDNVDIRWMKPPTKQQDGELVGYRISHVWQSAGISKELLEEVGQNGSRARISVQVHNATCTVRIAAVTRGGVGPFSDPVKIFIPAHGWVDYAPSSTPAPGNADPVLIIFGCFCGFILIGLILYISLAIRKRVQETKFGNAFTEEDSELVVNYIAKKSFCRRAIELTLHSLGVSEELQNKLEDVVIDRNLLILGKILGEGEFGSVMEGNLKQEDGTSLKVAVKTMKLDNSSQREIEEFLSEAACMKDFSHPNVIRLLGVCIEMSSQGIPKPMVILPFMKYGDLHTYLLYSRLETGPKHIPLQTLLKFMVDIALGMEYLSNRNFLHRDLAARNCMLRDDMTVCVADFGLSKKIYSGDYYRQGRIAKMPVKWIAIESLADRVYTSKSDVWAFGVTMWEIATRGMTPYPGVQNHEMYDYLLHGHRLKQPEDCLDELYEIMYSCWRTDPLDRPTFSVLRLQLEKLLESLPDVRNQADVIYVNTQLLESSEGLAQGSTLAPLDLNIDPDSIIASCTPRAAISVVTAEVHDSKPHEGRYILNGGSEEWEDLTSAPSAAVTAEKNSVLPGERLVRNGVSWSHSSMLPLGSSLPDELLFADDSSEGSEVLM
Hck, sequence (P08631 whole entry, looked up): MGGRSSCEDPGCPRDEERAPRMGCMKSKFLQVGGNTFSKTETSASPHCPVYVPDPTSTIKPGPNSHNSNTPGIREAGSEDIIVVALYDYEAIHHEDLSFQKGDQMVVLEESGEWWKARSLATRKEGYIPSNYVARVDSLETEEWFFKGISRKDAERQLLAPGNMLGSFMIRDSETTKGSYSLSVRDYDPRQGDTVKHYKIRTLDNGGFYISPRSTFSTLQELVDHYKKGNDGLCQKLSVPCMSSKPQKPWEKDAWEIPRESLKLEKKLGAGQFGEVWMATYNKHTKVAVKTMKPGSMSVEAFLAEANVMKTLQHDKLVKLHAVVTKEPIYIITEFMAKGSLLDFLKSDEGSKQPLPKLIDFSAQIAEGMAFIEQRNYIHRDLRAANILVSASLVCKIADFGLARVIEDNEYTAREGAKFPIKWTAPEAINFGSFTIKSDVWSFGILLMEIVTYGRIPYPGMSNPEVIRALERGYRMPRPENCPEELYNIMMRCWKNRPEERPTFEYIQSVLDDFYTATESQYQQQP
Jak2, sequence (O60674 whole entry, looked up): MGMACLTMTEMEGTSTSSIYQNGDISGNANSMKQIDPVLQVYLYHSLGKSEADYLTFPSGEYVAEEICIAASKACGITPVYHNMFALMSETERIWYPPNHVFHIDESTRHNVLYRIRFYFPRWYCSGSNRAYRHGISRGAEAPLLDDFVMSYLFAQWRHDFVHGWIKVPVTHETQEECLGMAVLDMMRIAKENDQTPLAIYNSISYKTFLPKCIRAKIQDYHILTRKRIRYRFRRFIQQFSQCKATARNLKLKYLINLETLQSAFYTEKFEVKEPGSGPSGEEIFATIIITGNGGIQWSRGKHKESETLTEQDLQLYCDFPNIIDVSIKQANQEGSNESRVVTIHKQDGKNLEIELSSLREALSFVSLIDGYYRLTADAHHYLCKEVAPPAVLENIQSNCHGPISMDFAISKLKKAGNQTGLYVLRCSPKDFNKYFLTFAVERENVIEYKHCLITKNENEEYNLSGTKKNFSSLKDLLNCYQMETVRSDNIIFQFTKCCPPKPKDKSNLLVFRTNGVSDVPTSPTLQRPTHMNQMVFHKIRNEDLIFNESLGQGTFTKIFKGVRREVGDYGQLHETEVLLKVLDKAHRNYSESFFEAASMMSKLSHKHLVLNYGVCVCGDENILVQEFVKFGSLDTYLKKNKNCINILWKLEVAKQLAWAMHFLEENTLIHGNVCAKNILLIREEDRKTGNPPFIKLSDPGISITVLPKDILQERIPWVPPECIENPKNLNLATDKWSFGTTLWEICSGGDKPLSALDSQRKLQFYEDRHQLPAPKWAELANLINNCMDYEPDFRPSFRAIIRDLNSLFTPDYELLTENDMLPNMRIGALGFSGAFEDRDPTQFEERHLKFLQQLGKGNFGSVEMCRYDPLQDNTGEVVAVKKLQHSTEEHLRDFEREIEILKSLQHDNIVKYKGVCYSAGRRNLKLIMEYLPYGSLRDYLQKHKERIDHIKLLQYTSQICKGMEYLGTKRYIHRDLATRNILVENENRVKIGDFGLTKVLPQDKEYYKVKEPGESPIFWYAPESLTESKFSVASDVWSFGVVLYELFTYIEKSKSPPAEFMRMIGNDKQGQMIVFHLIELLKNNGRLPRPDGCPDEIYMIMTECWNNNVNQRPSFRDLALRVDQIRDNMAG
FGFR3, sequence (P22607 whole entry, looked up): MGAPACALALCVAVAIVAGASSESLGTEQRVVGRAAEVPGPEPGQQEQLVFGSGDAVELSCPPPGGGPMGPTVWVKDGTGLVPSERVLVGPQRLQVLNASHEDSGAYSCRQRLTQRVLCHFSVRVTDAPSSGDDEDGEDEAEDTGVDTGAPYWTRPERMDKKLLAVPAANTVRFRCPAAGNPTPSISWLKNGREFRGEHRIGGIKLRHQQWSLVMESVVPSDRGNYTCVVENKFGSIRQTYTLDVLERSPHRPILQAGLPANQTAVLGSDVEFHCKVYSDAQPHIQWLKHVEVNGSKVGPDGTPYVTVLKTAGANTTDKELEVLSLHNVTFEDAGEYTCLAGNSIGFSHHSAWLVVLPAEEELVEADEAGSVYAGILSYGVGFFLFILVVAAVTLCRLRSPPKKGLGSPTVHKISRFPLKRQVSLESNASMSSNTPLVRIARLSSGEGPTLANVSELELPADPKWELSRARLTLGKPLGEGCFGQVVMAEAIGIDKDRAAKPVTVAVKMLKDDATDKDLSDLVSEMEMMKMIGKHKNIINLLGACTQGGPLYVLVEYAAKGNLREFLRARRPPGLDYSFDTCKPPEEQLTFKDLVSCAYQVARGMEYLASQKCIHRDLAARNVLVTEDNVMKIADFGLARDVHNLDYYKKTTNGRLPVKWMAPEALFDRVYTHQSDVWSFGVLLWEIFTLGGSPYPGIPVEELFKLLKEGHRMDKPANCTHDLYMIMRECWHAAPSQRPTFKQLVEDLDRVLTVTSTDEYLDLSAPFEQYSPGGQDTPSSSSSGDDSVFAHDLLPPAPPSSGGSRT
Fyn, sequence (P06241 whole entry, looked up): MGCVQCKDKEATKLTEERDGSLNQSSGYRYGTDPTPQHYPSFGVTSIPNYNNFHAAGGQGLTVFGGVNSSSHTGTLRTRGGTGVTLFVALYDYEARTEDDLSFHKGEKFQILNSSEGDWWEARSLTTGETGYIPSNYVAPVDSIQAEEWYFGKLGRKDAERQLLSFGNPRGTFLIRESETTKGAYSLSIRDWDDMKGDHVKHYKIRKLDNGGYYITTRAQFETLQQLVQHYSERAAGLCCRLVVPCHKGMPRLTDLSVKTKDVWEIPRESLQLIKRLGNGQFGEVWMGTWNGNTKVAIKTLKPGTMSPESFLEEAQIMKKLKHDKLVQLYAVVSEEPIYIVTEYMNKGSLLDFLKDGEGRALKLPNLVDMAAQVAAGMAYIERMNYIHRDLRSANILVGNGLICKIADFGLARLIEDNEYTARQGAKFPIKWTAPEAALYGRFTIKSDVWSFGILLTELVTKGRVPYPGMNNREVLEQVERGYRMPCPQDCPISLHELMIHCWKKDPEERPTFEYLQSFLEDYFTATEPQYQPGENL

Sequence	phosphorylation enrichment [1]	phosphorylation enrichment [2]	phosphorylation enrichment [3]	phosphorylation enrichment [4]	phosphorylation enrichment [5]	phosphorylation enrichment [6]	phosphorylation enrichment [7]	phosphorylation enrichment [8]	phosphorylation enrichment [9]	phosphorylation enrichment [10]	phosphorylation enrichment [11]	phosphorylation enrichment [12]	phosphorylation enrichment [13]	SH2 binding enrichment [14]	SH2 binding enrichment [15]	SH2 binding enrichment [16]
FDGKDYIALNE [HLA-A_Y147_YF]	1.21	0.628	0.704	0.601	0.68	0.496	1.06	0.7	0.6	0.898	0.382	0.654	0.386	0.785	0.807	0.557
ARVDTYCRHNY [HLA-DRB1_Y107_A103R]	0.825	0.6	0.583	0.582	0.698	0.812	1.09	0.552	0.502	0.798	0.538	0.797	0.468	1.09	0.755	0.752
GDPTEYFSTAI [IGSF22_Y501_YF]	1.54	0.634	0.645	0.7	0.936	0.433	1.08	0.525	0.498	1.15	0.439	0.745	0.502	0.788	0.583	0.522
AGIENYKSRFG [NKD2_Y256_T257K]	0.578	0.451	0.377	0.357	0.452	0.409	0.486	0.356	0.517	0.537	0.412	0.512	0.363	0.784	0.487	0.43
DAHFTYSRYPW [LY75_Y888_D884A]	1.16	2.76	5.6	0.716	0.641	0.5	0.885	2.4	3.76	1.02	1.27	1.19	3.24	0.817	0.761	0.51
MAQDIYRASYY [ALK_Y1278_R1275Q]	0.662	0.576	0.53	0.786	0.653	0.451	0.765	1.62	2.54	0.61	0.791	7.45	3.15	0.882	0.73	0.755
TIEDSYRKQVV [KRAS_Y40]	0.62	0.383	0.371	0.398	0.561	0.348	0.79	0.388	0.358	0.703	0.369	0.599	0.426	0.818	0.6	0.428
QDGFSYLSRQM [LDLR_Y847_P848L_YF]	0.985	0.584	0.797	0.872	0.995	0.636	1.07	0.772	0.748	0.844	0.413	0.563	0.461	0.983	0.557	0.406
GLDGSYLLRFS [SH2D1A_Y29_D33Y_YF]	0.839	0.44	0.518	0.385	0.546	0.424	0.965	0.435	0.408	0.843	0.414	0.644	0.465	0.885	0.937	0.944
LSSETYVKSYT [F5_Y2149_M2148T]	0.946	0.553	0.74	0.606	0.582	0.738	0.902	0.726	0.529	1.37	0.513	0.908	0.668	0.936	0.818	0.555
AVLALHNSTRD [TGFB1_Y81_Y81H]	0.546	0.354	0.323	0.346	0.387	0.38	0.647	0.423	0.359	0.519	0.398	0.494	0.322	0.752	0.588	0.517
KGEDFYFVTCH [FHL1_Y149_C150Y_YF]	1.26	0.709	0.788	0.62	0.946	0.588	1.57	0.451	0.503	1.49	0.491	0.9	0.468	0.743	0.345	0.392
KKARAYGPGIE [FLNA_Y287]	0.576	0.328	0.335	0.323	0.343	0.38	0.446	0.357	0.405	0.418	0.399	0.468	0.392	0.693	0.855	0.408
MASISYDYCRV [BST2_Y6_T4I]	1.58	4.17	3.29	1.32	1.1	2.33	0.908	0.565	1.02	1.09	0.75	0.708	0.589	1.1	0.77	1.22
GRVFVYHLSEQ [ITGAE_Y551_R552H_YF]	0.986	0.508	0.608	0.593	0.626	0.444	0.893	0.68	0.579	0.684	0.44	0.471	0.629	0.769	1.28	0.614
KCLAVYQAGAR [APOE_Y180_R176C]	0.737	0.597	0.646	0.47	0.557	0.487	0.742	0.646	0.812	0.744	0.478	0.734	2.45	0.841	0.628	0.677
RICRRYCQVLN [IQCF1_Y144_R141C]	1.03	0.676	0.624	0.857	0.66	0.654	1.18	0.748	0.7	0.817	0.758	0.701	0.738	0.537	0.76	0.329

Sequence	phosphorylation enrichment [1]	phosphorylation enrichment [2]	phosphorylation enrichment [3]	phosphorylation enrichment [4]	phosphorylation enrichment [5]	phosphorylation enrichment [6]	phosphorylation enrichment [7]	phosphorylation enrichment [8]	phosphorylation enrichment [9]	phosphorylation enrichment [10]	phosphorylation enrichment [11]	phosphorylation enrichment [12]	phosphorylation enrichment [13]	SH2 binding enrichment [14]	SH2 binding enrichment [15]	SH2 binding enrichment [16]
TPRNTYKMTSV [MKI67_Y849_L854V]	0.657	0.518	0.468	0.482	0.474	0.343	0.558	0.425	0.458	0.513	0.445	0.584	0.502	0.844	0.525	0.452
YLRTGYSVPYG [TGM1_Y370]	0.834	0.4	0.534	0.495	0.532	0.489	0.685	0.42	0.493	0.893	0.666	0.777	0.408	0.848	1.64	9.92
LDTIQYSKHPP [SQSTM1_Y433]	1.01	0.778	0.998	0.6	1.08	0.583	1.73	0.917	0.695	1.07	0.792	0.75	0.649	0.652	0.771	0.408
TSNQEYLDLSM [FGFR1_Y766]	1.14	0.8	0.626	1.53	1.17	0.457	1.08	0.485	0.464	1.03	0.437	1.02	0.492	0.863	0.781	0.487
NLPGGYSGSVK [MCPH1_Y606]	0.595	0.407	0.455	0.374	0.425	0.375	0.652	0.484	0.447	0.618	0.371	0.747	0.46	0.72	0.766	0.448
QERPEYWDQET [HLA-A_Y83_G80R]	1.81	0.693	0.702	0.727	0.915	1.14	1.58	0.646	0.696	1.56	0.566	1.14	0.554	0.985	0.827	0.626
EADRKYEEVAG [TPM3_Y163_R168G]	1.12	0.655	0.578	0.6	0.685	0.464	1.07	0.508	0.523	0.998	0.48	0.613	0.452	0.93	0.772	21.4
EDKSIYRRGAC [PRKCI_Y125_R130C]	0.496	0.34	0.429	0.42	0.495	0.35	0.705	0.375	0.405	0.532	0.406	0.474	0.315	0.941	0.831	0.514
ITVCDYTNPCP [MYD88_Y276_T281P]	1.49	0.561	0.482	0.443	0.551	0.396	0.829	0.428	0.354	0.689	0.333	0.551	0.943	1.07	0.85	0.686
QLQVFYATLDQ [MIPEP_Y579]	1.74	1.09	1.99	1.12	1.34	2.77	2.19	1.8	3.38	2.12	7.63	2.27	3.92	1.26	5.62	3.26
TLLERYGMTKI [ACSF3_Y355_E359K]	0.751	0.531	0.594	0.513	0.667	0.374	0.734	0.484	0.478	0.625	0.407	0.728	0.43	0.884	0.636	0.433
NYAKMYCNPDA [KNL1_Y489]	1.12	0.673	0.608	0.561	0.667	0.59	1.1	0.463	0.518	1.17	0.498	0.989	0.626	0.795	0.531	2.11
NKHTTYTMEHI [ACTN1_Y708_N707T]	0.527	0.394	0.4	0.395	0.445	0.397	0.575	0.419	0.451	0.447	0.434	0.514	0.45	0.865	0.787	0.565
GHEYIYVDPMQ [PDGFRA_Y574]	5.16	7.52	10.2	14.4	11.6	2.92	0.917	3.2	3.75	1.83	4.29	8.98	3.65	0.873	0.633	0.749
VEKEKYVSYIS [JMJD1C_Y596_M591V]	0.76	0.487	0.489	0.453	0.567	0.466	0.826	0.464	0.434	0.866	0.444	0.698	0.5	0.978	0.748	0.507
ANYTEYVATRW [CDKL5_Y171]	1.04	8.12	9.4	2.97	2.27	0.601	0.96	0.945	0.886	0.737	1.05	0.948	1.11	0.915	0.998	0.515
